This experiment addresses Plasmin. Put plainly: enzyme inhibition.

In general, Ki refers to the dissociation constant of the complex between target and ligand, obtained from inhibition or displacement.

Consider Aprotinin, for which the Ki stood at 0.23 nM.

Substance Aprotinin R15, S42 showed a Ki of 0.17 nM.

The values above are taken from patent publication US6906033.
